From US20090004749, “METHOD AND KIT FOR DETERMINING THE AMOUNT OF DNA BINDING PROTEIN” (SYSMEX CORPORATION, published 2009)

Columns and labels:
[1] = molecular target: T1, NF-κB (recombinant, p50) (UniProt P19838 P19838:1-433); assay: fluorescence correlation spectroscopy; 1 nM probe, room temperature; 10 min; details: tags: Promega; detected with anti-p50 antibody; chain copies: 2; label: 5'-TAMRA; hairpin, stem-loop with AAAA loop
Experimental: (§1) As a pure-line sample, 0.6 μg/μl solution of recombinant NF-κB was used. […] As the control, a pure-line sample-free sample using the fluorescent-labeled probe Pfw only as a nucleic acid probe was used. In the Reference Example, the sample to which an anti-p50 antibody had further been added was used. The reaction time was 10 minutes for each sample.

[2] = molecular target: T1, NF-κB (recombinant, p50); assay: competition; FCS; unlabeled competitor against 1 nM Pfw; details: tags: Promega; detected with anti-p50 antibody; chain copies: 2; hairpin, stem-loop with AAAA loop
Experimental: as §1

[3] = molecular target: T1, NF-κB (recombinant, p50); assay: competition; FCS; no competition at 50 nM; diffusion time same as without competitor; details: tags: Promega; detected with anti-p50 antibody; chain copies: 2; hairpin, stem-loop with AAAA loop
Experimental: as §1

T1 sequence (P19838 1-433, one chain of several): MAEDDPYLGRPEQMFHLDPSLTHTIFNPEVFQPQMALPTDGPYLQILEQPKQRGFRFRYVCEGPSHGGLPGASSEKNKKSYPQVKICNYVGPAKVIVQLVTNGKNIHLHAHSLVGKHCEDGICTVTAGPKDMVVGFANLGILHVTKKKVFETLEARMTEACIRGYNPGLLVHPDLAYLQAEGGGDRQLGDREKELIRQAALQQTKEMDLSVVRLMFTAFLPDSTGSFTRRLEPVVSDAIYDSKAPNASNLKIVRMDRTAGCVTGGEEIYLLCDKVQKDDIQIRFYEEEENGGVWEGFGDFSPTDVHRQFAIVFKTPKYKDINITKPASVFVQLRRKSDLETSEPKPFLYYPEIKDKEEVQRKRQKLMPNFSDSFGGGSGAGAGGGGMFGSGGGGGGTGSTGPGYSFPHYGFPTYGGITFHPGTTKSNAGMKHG

AGTTGAGGGGACTTTCCCAGGCAAAAGCCTGGGAAAGTCCCCTCAACT (structured_DNA) [Pfw]
binding result [1]: binds

AGTTGAGGGGACTTTCCCAGGCAAAAGCCTGGGAAAGTCCCCTCAACT (structured_DNA) [Pw]
binding result [2]: binds

CAGGCGCGTTTTGACCATCTTAAAAAAGATGGTCAAAACGCGCCTG (structured_DNA) [Pn]
binding result [3]: no binding
